# Results as given in the supplement of paper PMC9170038.
# System: K4 kissing-loop RNA reporter
# Test: apparent KD of K4 kissing-loop reporter; higher = weaker reporter binding
# Settings: Eterna round: R107; input ligand: none
# Procedure: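 RNA-MaP round R107: designed RNA switches with theophylline, tryptophan, arginine or FMN aptamers are transcribed on-chip within common flanks. They are titrated with a labelled K4 kissing-loop RNA reporter in RNA-MaP buffer (100 mM Tris pH 7.5, 80 mM KCl, 4 mM MgCl2), without ligand or with the indicated ligand. Median apparent KD per design.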
# 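Also: bound reporter read as fluorescence of individual clusters on recovered sequencing chips by microscopy, with normalized cluster intensities fitted with a binding model.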
row,Sequence,apparent KD of K4 kissing-loop reporter [nM]
1,CCAUCGCUAUUCGAUACCAGUCAUUUUUUAUUUUAUUUUUUUUUUGGAGUGAUGUUCCAAGACCCUUGGCAGCGAAUAGUGAUGG [whbob_SS_Theo_B_th78],113
2,AUUUUUUUGUCAGGAUAUUAGUGUGCGUUUGGUUUGUUAGUGAUGUUGAUAUUUGGUUUAUGUAUUUAAGAAGGGAUUUAGCGGU [dhbbtemullin],562
3,AAAAUUAACAAGAGUGAUGUUCUUGUUAGACAGGAUAUCGGUUUAACGAGAAGGGUCGUGGCUCCAUUGGGCCCAGUGGUUCACC [Mazareri],687
4,UUCGUAGUAGGAAACUAUUACGAAAAGGAAGGAGCGGCGAAGAAGCCAGGUAGGUCGCCUAUUGACAGUGAUGUUGUUAUGUAGA [#9],241
5,AGAGUGAUGUUUUUUUGAAGUGAGUAAUGUCGAGGACCGGUACGGCCGCCACUCGAGUGAUGUUAGUGAUGUUGAUGUAGUGAUG [?lmullin],72.4
6,UAAGAAUAAGUAGCAGUGAUGUUGCUACUGCGAGGACCGGUACGGCCGCCACUCGAGUCCUCGAAACAUCACUGAACGAGGAAUA [whbob_SS_Tryp_A_m11],193
7,UUAGUCUAGAGAAGGAGCGCAGUGAUGUUGCGGUAUGUGAAAAUAUGUAUAUAAUAAUAAAUGCAGGUAGGUCGCUCUAGACAUU [AK2 Exc Arginine B],64.9
8,AUUUUUUUGUCAGGAUAUUAGUAUGCUUUUGGUUUGUUAGUGAUGUUGAUAUUUUGUUUAUGUAUUUAAGAAGGGAUUUAGCGGU [etvuumullin],362
9,AAGUGUUCUAGUGAUACCAGACAUUUCUAUUACAUUAAUAUAGCUAAGUGAUGUUUAGCAGUCCCUUGGCAGCACUAUUUCACUA [JR_SSTheophyB_Sub015],174
10,AAGCCAGAGAUUGCUGCGGGUUCCAGAGAUACCAGCCGUAUUGAAGGCCCUUGGCAGCUCGAGUGAUGUUCGAGCCGUCUCUAGC [Bisore],124
11,UCUCAGGAGUGAUGUUCCGUAGGUGGAAGGAAGGAUAUCUAAUGGCAGAGAAGGUCCAUCCUUGCUCGUAUCAGUGCCGGGAAGC [theeternabot_exclusion_KL_FMN_A_13],232
12,CAGGCGACUAUCGAUACCAGAUGAUAUCGACUACUUGAGUGAUGUUCGAUUAAAGGCAUUAUCCCUUGGCAGCGACUGGACACAU [theeternabot_sameState_KL_Theo_B_24],667
13,UAAGAUAUGAGGGAUACCAGCCAUAAGGAAAGUGUGAUGAGUGAUGUUCUGACAAGCCAAGGCCCUUGGCAGCUUUAAUAGCAUC [whbob_SS_Theo_B_th76],164
14,UCCUGCAAUCUGCCACGAAAGUGGGUUGAUACCAGAGUCGAAAGACUCCCUUGGCAGCGAGUGAUGUUCGUUGCAGGUGUUUAAA [MatMod 11 - Jieux - Exclusion - Theophylline A],186
15,AUUUGUUUAUGUGAUACCAGACUUUGCAGUGAUGUUGCAUUUAUUUUAGAAGAAUAGUUUGUCCCUUGGCAGCACUAUGUAUUUA [JR_SSTheophyB_Sub006],49.3
16,UGCACCAGUGAUGUUGGUCGGCACCGAGAUACCAGCUGAUCUCUUAGCCCUUGGCAGCUCUUUAUUCGCGUUAUCAGUUUCUUCG [theeternabot_sameState_KL_Theo_A_16],464
17,AUGCGACGUGCGGCCGCCACUCGGAUGCGAGUGAUGUUCGCGGGACGGACGCAAGUCCGUCAUUCGAGGACCGGGCAUCGGUGUA [#2 Same State - Tryptophan B Attempt #2 (HarryS)],636
18,GUUACGCAUGGAAGGAGCGCAGGCUCAACAAAUAGCUCAGUGAUGUUGAGCAAAUUAAAACUGCAGGUAGGUCGCCAUGUGUAAC [Ex Arginine B K4 22],508
19,AAUGCAUAGUGAAGGAGCGCGAUAAGCAGUGAUGUUGCUUAGCUAUUAUUCAUUUUUUUAACGCAGGUAGGUCGCACUUUGCAUA [JR_ExcArginiB_Sub016],135
20,CAAACGUGCGGUAGGUUCAAGCGCUGGGAAGGAGCGCAGAUGACUGCAGGUAGGUCGCCCAGUGAUGUUGGGCUUUCCACCUACG [Dilausma],119
21,GGUUCCUCAGUGAUGUUGAGGUGACCUCGGCAGGAUAUAGGCAUUACUAGAAGGGCCAAAAGAAUCCUGUGCAGCAACACAGGGA [Usrasoza],298
22,AGGAGCGUGCGAUGGAAAUCGCACGCUCCUCGAGGACCGGUACGGCCGCCACUCGCUCGCGCCGAGUGAUGUUCGGCCGGCGAAG [#2 Same State - Tryptophan A Attempt #16 (HarryS)],85.7

# Same assay, conditions: Eterna round: R107; input ligand: theophylline 20 uM
row,Sequence,apparent KD of K4 kissing-loop reporter [nM]
1,AAAUUUAAUAUAUUUAAAUAAAUAUGUGAUACCAGACAUUUAUAAGUCCCUUGGCAGCACAAUGCAGUGAUGUUGCUUAUAAUAA [JR_SSTheophyA_Sub017],192
2,GAUAAAUUGAUGCGUAGUGAUGCACGGGAAGGAGCGCGUUUUUUCGCAGGUAGGUCGCCCGACUGCGCGUUUCGAGUGAUGUUCG [5.)],197
3,GCCGUAGAUUGAAGGAGCGUGGACCUAUCGCUUGAACAGUGAUGUUGUUUAUCUAGGGAGCCGCAGGUAGGUCGCAAUCUACGGC,370
4,UACGCUUACUUGCGCGGUCCGAUUAACGAUACCAGCGAAGAAGCCCGCCCUUGGCAGCGUUAUAGAGUGAUGUUCACGGAGAUUA [theeternabot_sameState_KL_Theo_A_12],1070
5,GAUAUAGUGAUGUUAUAUACUGAUAGACAACGAGGACCGGUACGGCCGCCACUCGAGAGGGUGAAAAUGGUGAUAAAAUAAUGAU [#03 K4 Tryptophan A Exclusion],322
6,UGAUUUAACUGAAGGAGCGGCAAUUGAGAAGGAAAUAUAGUGAUGUUAUAUAAGAGAGAGAGCCAGGUAGGUCGCAGAGGGAGGA [ExArgB.G],198
7,UAGUCCUAGUGAUCCUUAUCAAGUGGUGGGCGAGGACCGGUACGGCCGCCACUCGACUAUGCAGUGAUGUUGUAAUCCGGACAAU [Exclusion - Tryptophan A (Freestyle 12)],742
8,AUGUCUUAUAAACUCGUGGUUUCGAUCGAUACCAGUAGCGAGAGUUACCCUUGGCAGCGACAUGAGUGAUGUUCAUGUACGAAGA [KL-XTheoA4],90.2
9,UUUCUAUCGGGAAGGAGCGUGAAUGAUAAUGGAUAUAGUGAUGUUAUAUAUAAGAACGAAUCGCAGGUAGGUCGCCCGGAUGACU [SSArgB.R],389
10,AAGCAGUCACUCGAAGCCAUCGAAGAUGGUCGAGGACCGGUACGGCCGCCACUCGGAGUGAUGUUCCGAAGACUGCAAAAUAAAA [#SwitchBubble 11],273
11,UAGGCGGGAGAAGGAUAUCUGUGAAACCUGCUGCCCAAUAAGUGAUGUUUAUAAAGGAAGCGUCAUAGAGAAGGUCUAACAAGUA [theeternabot_sameState_KL_FMN_B_1],642
12,AUACAGCGACGCGCUAGUGAUGUUAGCGAAGGAGCGACUCAUGAGUCAGGUAGGUCGCGCUAACGUGGUUACGAGAGUAACCAGU [Arg A Ex t1a],80.1
13,CAUACGCAUGGAGGAUAUGAGAUUUCUCAUGUCAUUUAAUAUUCUCAGUGAUGUUGAGAAUUUGGCUCAGAAGGCCAUGUGUAUG [Ex FMN B 20],426
14,AUUAAUAUCACGGCCGCCACUGAAUAUUGUUUUUAUAUUUAGAAAUCUUGCCAGUGAUGUUGGAUCAGGACCGGGUGAGUUUAUA [JR_SSTryptoB_Sub006],424
15,CUAUGGAAACAUAGUAGUCGGGAAACCGAUACCAGUAUGGAAACAUACCCUUGGCAGCGGAAUGAUUAAACGGAGUGAUGUUCCG [Theophylline A K4 18],223
16,UUUAUAUUCUGAGGAUAUCGUAUUAAUGAAGUGAUGUUUCAGUAUAUUCUAAUUAUAUAUAAUUUUCGAGAAGGCAGUAUUAUUU [JR_Nu3_SSFMNB_Sub028],320

row,Sequence,apparent KD of K4 kissing-loop reporter [nM]
1,GGUUUAUAGGAGGAUACCAGUACGGAUAAAGUACAUUAAUAGUAGAGUGAUGUUCUAAAGUACCCUUGGCAGCUUAGAUUAAGUU [ExTheophylB.I],209
2,UGAUACCAGACGGCCGCCACUCCCGCAGGUCAAAGACCUGCGAAGAAGGUUCUUCAGUGAUGUUGGAGGACCGGGUCUGGUAUCU [FiskerMod 22 - Jieux - Exclusion - Tryptophan B],213
3,AAAUAAGCUCAUGAUACCAGCCAGUGAUGUUGGUUGGUCCACCGUGUCCGAACAUUAAGCGGCCCUUGGCAGCAUGAUGCGCGUA [Xearxea],119
4,UGACAUUGCUCAGAUACCAGACUUGAGGAUCACCCAAGUGCCAAACGUACAAUAAUAAAAGUCCCUUGGCAGCUGAGCAAUGUCU [TheoBX 14],112
5,AAGCAGUCACUCGAAACCAUCGAAGAUGGGCGAGGACCGGUACGGCCGCCACUCGGAGUGAUGUUCCGAAGACUGCAAAAUAAAA,443
6,CCAUCGCUAUUCGAUACCAGUCAUUUUUUAUUUUAUUUUUUUUUUGGAGUGAUGUUCCAAGACCCUUGGCAGCGAAUAGUGAUGG [whbob_SS_Theo_B_th78],139
7,AUUUUUUUGUCAGGAUAUUAGUGUGCGUUUGGUUUGUUAGUGAUGUUGAUAUUUGGUUUAUGUAUUUAAGAAGGGAUUUAGCGGU [dhbbtemullin],582
8,AAAAUUAACAAGAGUGAUGUUCUUGUUAGACAGGAUAUCGGUUUAACGAGAAGGGUCGUGGCUCCAUUGGGCCCAGUGGUUCACC [Mazareri],326
9,UUCGUAGUAGGAAACUAUUACGAAAAGGAAGGAGCGGCGAAGAAGCCAGGUAGGUCGCCUAUUGACAGUGAUGUUGUUAUGUAGA [#9],360
10,AGAGUGAUGUUUUUUUGAAGUGAGUAAUGUCGAGGACCGGUACGGCCGCCACUCGAGUGAUGUUAGUGAUGUUGAUGUAGUGAUG [?lmullin],137
11,UAAGAAUAAGUAGCAGUGAUGUUGCUACUGCGAGGACCGGUACGGCCGCCACUCGAGUCCUCGAAACAUCACUGAACGAGGAAUA [whbob_SS_Tryp_A_m11],319
12,UUAGUCUAGAGAAGGAGCGCAGUGAUGUUGCGGUAUGUGAAAAUAUGUAUAUAAUAAUAAAUGCAGGUAGGUCGCUCUAGACAUU [AK2 Exc Arginine B],85.7
13,AUUUUUUUGUCAGGAUAUUAGUAUGCUUUUGGUUUGUUAGUGAUGUUGAUAUUUUGUUUAUGUAUUUAAGAAGGGAUUUAGCGGU [etvuumullin],371
14,AAGUGUUCUAGUGAUACCAGACAUUUCUAUUACAUUAAUAUAGCUAAGUGAUGUUUAGCAGUCCCUUGGCAGCACUAUUUCACUA [JR_SSTheophyB_Sub015],238
15,AAGCCAGAGAUUGCUGCGGGUUCCAGAGAUACCAGCCGUAUUGAAGGCCCUUGGCAGCUCGAGUGAUGUUCGAGCCGUCUCUAGC [Bisore],123
16,UCUCAGGAGUGAUGUUCCGUAGGUGGAAGGAAGGAUAUCUAAUGGCAGAGAAGGUCCAUCCUUGCUCGUAUCAGUGCCGGGAAGC [theeternabot_exclusion_KL_FMN_A_13],304
